Assay results taken from the supplement of paper PMC9112550, “Optimization of the antimicrobial peptide Bac7 by deep mutational scanning” (BMC Biology, 2022).

System: Escherichia coli TOP10
Assay: shrunken log2 fold change of peptide-encoding DNA abundance (4.5 h post-induction vs induction); higher = less antimicrobial activity (less host growth inhibition)
Conditions: time post-induction: 4.5 h; library: site-saturation at positions 5, 18, 19, 20
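Further: peptides expressed intracellularly from a pBAD plasmid library in pooled LB shake-flask culture, induced with 0.3% L-arabinose, DNA abundance read by NGS, three biological replicates, DESeq2 with apeglm shrinkage.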

| Sequence | shrunken log2 fold change |
| --- | --- |
| RRIRTRPPRLPRPRPRPPLSPRP | -0.0606 |
| RRIRTRPPRLPRPRPRPPMEPRP | -0.00995 |
| RRIRTRPPRLPRPRPRPPMHPRP | 0.141 |
| RRIRTRPPRLPRPRPRPPQRPRP | 0.577 |
| RRIRTRPPRLPRPRPRPPQYPRP | -0.108 |
| RRIRTRPPRLPRPRPRPPRQPRP | 0.52 |
| RRIRTRPPRLPRPRPRPPSNPRP | -0.244 |
| RRIRTRPPRLPRPRPRPPSSPRP | -0.00871 |
| RRIRTRPPRLPRPRPRPPTMPRP | -0.0279 |
| RRIRTRPPRLPRPRPRPPTWPRP | 0.0779 |
| RRIRTRPPRLPRPRPRPPVMPRP | -0.113 |
| RRIRTRPPRLPRPRPRPPVPPRP | 0.139 |
| RRIRTRPPRLPRPRPRPPVRPRP | 0.558 |
| RRIRTRPPRLPRPRPRPPWKPRP | -0.107 |
| RRIRTRPPRLPRPRPRPPWQPRP | 0.698 |
| RRIRTRPPRLPRPRPRPPWSPRP | 0.194 |
| RRIRTRPPRLPRPRPRPPYKPRP | -0.294 |
| RRIRTRPPRLPRPRPRPQAIPRP | 0.209 |
| RRIRTRPPRLPRPRPRPQCAPRP | 0.151 |
| RRIRTRPPRLPRPRPRPQDWPRP | 0.209 |
| RRIRTRPPRLPRPRPRPQEFPRP | 0.0555 |
| RRIRTRPPRLPRPRPRPQEHPRP | -0.0662 |
| RRIRTRPPRLPRPRPRPQEQPRP | 0.021 |
| RRIRTRPPRLPRPRPRPQGIPRP | 0.0112 |
| RRIRTRPPRLPRPRPRPQIQPRP | -0.418 |

| Sequence | shrunken log2 fold change |
| --- | --- |
| RRIRTRPPRLPRPRPRPQMCPRP | 0.0024 |
| RRIRTRPPRLPRPRPRPQNLPRP | -0.135 |
| RRIRTRPPRLPRPRPRPQQFPRP | -0.0175 |
| RRIRTRPPRLPRPRPRPQQGPRP | -0.238 |
| RRIRTRPPRLPRPRPRPQQTPRP | 0.0814 |
| RRIRTRPPRLPRPRPRPQRQPRP | 0.455 |
| RRIRTRPPRLPRPRPRPQSHPRP | -0.207 |
| RRIRTRPPRLPRPRPRPQTEPRP | -0.0173 |
| RRIRTRPPRLPRPRPRPQTHPRP | -0.322 |
| RRIRTRPPRLPRPRPRPQVEPRP | -0.00619 |
| RRIRTRPPRLPRPRPRPQVLPRP | -0.0479 |
| RRIRTRPPRLPRPRPRPQWDPRP | -0.0974 |
| RRIRTRPPRLPRPRPRPQWLPRP | -0.455 |
| RRIRTRPPRLPRPRPRPQYPPRP | -0.923 |
| RRIRTRPPRLPRPRPRPQYTPRP | -0.697 |
| RRIRTRPPRLPRPRPRPRASPRP | 0.367 |
| RRIRTRPPRLPRPRPRPRCPPRP | 0.0716 |
| RRIRTRPPRLPRPRPRPRDGPRP | 0.456 |
| RRIRTRPPRLPRPRPRPRDRPRP | 0.19 |
| RRIRTRPPRLPRPRPRPRENPRP | 0.277 |
| RRIRTRPPRLPRPRPRPRHAPRP | 0.329 |
| RRIRTRPPRLPRPRPRPRHKPRP | 0.123 |
| RRIRTRPPRLPRPRPRPRHQPRP | -0.154 |
| RRIRTRPPRLPRPRPRPRILPRP | -0.0615 |
| RRIRTRPPRLPRPRPRPRKFPRP | 0.0711 |

| Sequence | shrunken log2 fold change |
| --- | --- |
| RRIRTRPPRLPRPRPRPRPKPRP | 0.303 |
| RRIRTRPPRLPRPRPRPRQPPRP | 0.135 |
| RRIRTRPPRLPRPRPRPRRQPRP | -0.0389 |
| RRIRTRPPRLPRPRPRPRRSPRP | 0.318 |
| RRIRTRPPRLPRPRPRPRSKPRP | -0.101 |
| RRIRTRPPRLPRPRPRPRVTPRP | -0.163 |
| RRIRTRPPRLPRPRPRPRYFPRP | -0.429 |
| RRIRTRPPRLPRPRPRPRYIPRP | -0.368 |
| RRIRTRPPRLPRPRPRPSAPPRP | 0.269 |
| RRIRTRPPRLPRPRPRPSCLPRP | -0.624 |
| RRIRTRPPRLPRPRPRPSDFPRP | -0.704 |
| RRIRTRPPRLPRPRPRPSDGPRP | 0.0381 |
| RRIRTRPPRLPRPRPRPSFIPRP | -0.761 |
| RRIRTRPPRLPRPRPRPSGKPRP | -0.0608 |
| RRIRTRPPRLPRPRPRPSHHPRP | -0.646 |
| RRIRTRPPRLPRPRPRPSHIPRP | -0.274 |
| RRIRTRPPRLPRPRPRPSKWPRP | -0.0672 |
| RRIRTRPPRLPRPRPRPSLAPRP | 0.105 |
| RRIRTRPPRLPRPRPRPSLTPRP | -0.452 |
| RRIRTRPPRLPRPRPRPSMFPRP | -0.46 |
| RRIRTRPPRLPRPRPRPSMIPRP | -0.527 |
| RRIRTRPPRLPRPRPRPSMWPRP | 0.103 |
| RRIRTRPPRLPRPRPRPSNVPRP | -0.337 |
| RRIRTRPPRLPRPRPRPSPGPRP | 0.103 |
| RRIRTRPPRLPRPRPRPSQLPRP | -0.453 |
